Assay results taken from patent US20210261643A1, “INHIBITORS OF P-TEFB MEDIATED TRANSCRIPTION” (The Regents of the University of California, priority 2018, published 2021).

Tested on: HIV reactivation in 2D10 cells
Test: HIV reactivation in 2D10 latent infection model, FACS of GFP positive cells
Type: cell-based
Details: D-HT cells, 24 hrs
Excerpt: FIGS. 4A and 4B. Stable expression of HT1 inhibits HIV reactivation. FIG. 4A: Stable expression of HT1 inhibits HIV reactivation from 2D10 cells. 3f:HT1 was stably expressed in 2D10 cells (D-HT cells). […] Error bars represent standard deviation from triplicate FACS analysis. FIG. 4B: Stable expression of HT1 inhibits HIV reactivation from J-Lat 9.2 cells. 3f:HT1 was stably expressed in J-Lat 9.2 cells (L-HT cells). […] Error bars represent standard deviation from triplicate FACS analysis.
To test the effect of HT1 on HIV-1 in T-lymphocyte derived cells, 3f:HT1 was stably expressed in HIV latent infection models 2D10 and J-Lat 9.2 cells (D-HT and L-HT cells respectively), which carry replication-defective, GFP-flagged HIV proviruses. In both 2D10 and J-Lat 9.2, the basal HIV transcription level is undetectable, as measured through GFP expression. Compounds such as the PKC agonist PMA, the histone deacetylase inhibitor SAHA or the BET bromodomain inhibitor JQ1 reactivate HIV transcription and increase GFP-positive cells detected by FACS analysis. 2D10 cells are more sensitive to HIV reactivation than J-Lat 9.2 cells, though they harbor a mutation in the N-terminal sequence of Tat (H13L). 2D10 and D-HT cells were incubated for 24 hrs with PMA (10 nM), SAHA (5 μM) or JQ1 (1 μM) and GFP positive cells were detected by FACS analysis. PMA, SAHA and JQ1 reactivated HIV from 65%, 71% and 58% less D-HT cells than from control 2D10 cells, respectively. Due to the limited HIV reactivation by SAHA and JQ1 in J-Lat 9.2 cells, we only treated them with PMA (100 nM), which induced a 12% increase in GFP expression.

B1: HT1 (protein)
chain: KKKHRRRPSKKKRHWKPYYKLTWEEKKKFDEKQSLRASRIRAEMFAKGQPVAPYNTTQFLMDDHDQEEPDLVDMEPVDPYLEPWKHPGSQPRTACNNCYCKKCCFHCYACFTRKGLGISYG
modifications: left off: small tags and cut ends
JQ1 1 μM
  fewer cells with reactivated HIV (GFP positive) than control 2D10 cells: 58%
PMA 10 nM
  fewer cells with reactivated HIV (GFP positive) than control 2D10 cells: 65%
SAHA 5 μM
  fewer cells with reactivated HIV (GFP positive) than control 2D10 cells: 71%
